Experiments:
HLA-A*02 = target: T1, HLA-A*02 (Homo sapiens, UniProt P04439, D140Y/D185E/D98H/E176V/E277Q/G131W/G231S/I119V/I121R/I166T/I218V/L300P/N151K/N90K/P208A/P217A/Q86G/Q94H/R138H/R169H); assay: MHC binding assay, UV-ligand exchange with beta2m ELISA (peptide exchange yield); conditions: binding to HLA-A*02
T1 construct: made in house
Outline: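 pMHC complexes formed by UV-induced cleavage of a photolabile peptide and exchange with candidate peptide; exchange yield measured by streptavidin-capture ELISA detecting β2m with HRP anti-β2m, TMB, A450. Exchange samples diluted 100-fold; refolded HLA-A*02:01/MLA-001 monomers (15-500 ng/ml) as standards; incubations 1 h, 37 °C.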

[1] = tested on: CD8+ T cells of healthy HLA-A*02+ donors; assay: In vitro T-cell priming with aAPCs loaded with HLA-A*02/peptide complexes and anti-CD28, multimer staining; assay type: cell-based, human; conditions: HLA-A*02 peptides (SEQ ID 1-157, 229-266); peptide-specific multimer+ CD8+ T cells after aAPC priming
Description: FIGS. 4A to 4D show exemplary results of peptide-specific in vitro CD8+ T cell responses of a healthy HLA-A*02+ donor. CD8+ T cells were primed using artificial APCs coated with anti-CD28 mAb and HLA-A*02 in complex with Seq ID No 27 peptide (FIG. 4A, left panel), Seq ID No 229 peptide (FIG. 4B, left panel), Seq ID No 230 peptide (FIG. 4C, left panel) and Seq ID No 235 peptide (FIG. 4D, left panel), respectively. After three cycles of stimulation, the detection of peptide-reactive cells was performed by 2D multimer staining with A*02/Seq ID No 27 (FIG. 4A), A*02/Seq ID No 229 (FIG. 4B), A*02/Seq ID No 230 (FIG. 4C) or A*02/Seq ID No 235 (FIG. 4D). Right panels (FIGS. 4A, 4B, 4C and 4D) show control staining of cells stimulated with irrelevant A*02/peptide complexes. Viable singlet cells were gated for CD8+ lymphocytes. Boolean gates helped excluding false-positive events detected with multimers specific for different peptides. Frequencies of specific multimer+ cells among CD8+ lymphocytes are indicated.
In order to obtain information regarding the immunogenicity of the TUMAPs of the present invention, the inventors performed investigations using an in vitro T-cell priming assay based on repeated stimulations of CD8+ T cells with artificial antigen presenting cells (aAPCs) loaded with peptide/MHC complexes and anti-CD28 antibody.
In order to perform in vitro stimulations by artificial antigen presenting cells loaded with peptide-MHC complex (pMHC) and anti-CD28 antibody, the inventors first isolated CD8+ T cells from fresh HLA-A*02 leukapheresis products via positive selection using CD8 microbeads (Miltenyi Biotec, Bergisch-Gladbach, Germany) of healthy donors obtained from the University clinics Mannheim, Germany, after informed consent.
PBMCs and isolated CD8+ lymphocytes were incubated in T-cell medium (TCM) until use consisting of RPMI-Glutamax (Invitrogen, Karlsruhe, Germany) supplemented with 10% heat inactivated human AB serum (PAN-Biotech, Aidenbach, Germany), 100 U/ml Penicillin/100 μg/ml Streptomycin (Cambrex, Cologne, Germany), 1 mM sodium pyruvate (CC Pro, Oberdorla, Germany), 20 μg/ml Gentamycin (Cambrex). 2.5 ng/ml IL7 (PromoCell, Heidelberg, Germany) and 10 U/ml IL-2 (Novartis Pharma, Nürnberg, Germany) were also added to the TCM at this step.
Generation of pMHC/anti-CD28 coated beads, T-cell stimulations and readout was performed in a highly defined in vitro system using four different pMHC molecules per stimulation condition and 8 different pMHC molecules per readout condition.
The purified co-stimulatory mouse IgG2a anti human CD28 Ab 9.3 (Jung et al., 1987) was chemically biotinylated using Sulfo-N-hydroxysuccinimidobiotin as recommended by the manufacturer (Perbio, Bonn, Germany). Beads used were 5.6 μm diameter streptavidin coated polystyrene particles (Bangs Laboratories, Illinois, USA).
pMHC used for positive and negative control stimulations were A*0201/MLA-001 (peptide […] (SEQ ID NO. 303) from modified Melan-A/MART-1) and A*0201/DDX5-001 ([…] from DDX5, SEQ ID NO. 304), respectively.
800.000 beads/200 μl were coated in 96-well plates in the presence of 4×12.5 ng different biotin-pMHC, washed and 600 ng biotin anti-CD28 were added subsequently in a volume of 200 μl. Stimulations were initiated in 96-well plates by co-incubating […] CD8+ T cells with 2×10^5 washed coated beads in 200 μl TCM supplemented with 5 ng/ml IL-12 (PromoCell) for 3 days at 37° C. Half of the medium was then exchanged by fresh TCM supplemented with 80 U/ml IL-2 and incubating was continued for 4 days at 37° C. This stimulation cycle was performed for a total of three times. For the pMHC multimer readout using 8 different pMHC molecules per condition, a two-dimensional combinatorial coding approach was used as previously described (Andersen et al., 2012) with minor modifications encompassing coupling to 5 different fluorochromes. […]

Substance | Peptide exchange (MHC class I binding score, peptide exchange yield) (HLA-A*02) | Wells positive [%] (in vitro immunogenicity) [1]
35 (FLLPFSTVYL; listed as Homo sapiens) [compound 35] | +++ (50%-75% = +++) | + (<20% = +)
232 (KIFPAALQLV; listed as Homo sapiens) [compound 232] | +++ (50%-75% = +++) | ++ (20%-49% = ++)
20 (GLSQITNQL; listed as Homo sapiens) [compound 20] | +++ (50%-75% = +++) | ++ (20%-49% = ++)
18 (ILLDLTDNRL; listed as Homo sapiens) [compound 18] | +++ (50%-75% = +++) | + (<20% = +)
26 (ALQEELTEL; listed as Homo sapiens) [compound 26] | +++ (50%-75% = +++) | + (<20% = +)
4 (KLMPGTYTL; listed as Homo sapiens) [compound 4] | ++++ (> = 75% = ++++) | + (<20% = +)
149 (ILNTHITEL; listed as Homo sapiens) [compound 149] | +++ (50%-75% = +++) | + (<20% = +)
233 (HLFDAFVSV; listed as Homo sapiens) [compound 233] | +++ (50%-75% = +++) | ++ (20%-49% = ++)
96 (LLVSHLYLV; listed as Homo sapiens) [compound 96] | ++ (20%-49% = ++) | ++ (20%-49% = ++)
12 (GLLPLLHRA; listed as Homo sapiens) [compound 12] | ++++ (> = 75% = ++++) | ++++ (> = 70% = ++++)
150 (VLYDRPLKI; listed as Homo sapiens) [compound 150] | +++ (50%-75% = +++) | ++ (20%-49% = ++)
14 (ILAKDLFEI; listed as Homo sapiens) [compound 14] | ++++ (> = 75% = ++++) | ++ (20%-49% = ++)
248 (YLDRFLAGV; listed as Homo sapiens) [compound 248] | ++++ (> = 75% = ++++) | ++ (20%-49% = ++)
138 (ALLAKILQI; listed as Homo sapiens) [compound 138] | +++ (50%-75% = +++) | ++ (20%-49% = ++)
1 (LLYPEPWSV; listed as Homo sapiens) [compound 1] | ++++ (> = 75% = ++++) | ++ (20%-49% = ++)
27 (RLMEENWNA; listed as Homo sapiens) [compound 27] | +++ (50%-75% = +++) | +++ (50%-69% = +++)
251 (ALSVLRLAL; listed as Homo sapiens) [compound 251] | +++ (50%-75% = +++) | ++ (20%-49% = ++)
31 (TITETTVEV; listed as Homo sapiens) [compound 31] | +++ (50%-75% = +++) | + (<20% = +)
23 (SLFSDEFKV; listed as Homo sapiens) [compound 23] | +++ (50%-75% = +++) | ++++ (> = 70% = ++++)
141 (FLDKVLVAA; listed as Homo sapiens) [compound 141] | +++ (50%-75% = +++) | + (<20% = +)

Continued, in another order:

Peptide exchange (MHC class I binding score, peptide exchange yield) (HLA-A*02) | Substance | Wells positive [%] (in vitro immunogenicity) [1]
+++ (50%-75% = +++) | 90 (FLQDLEQRL; listed as Homo sapiens) [compound 90] | + (<20% = +)
++++ (> = 75% = ++++) | 249 (GLCERLVSL; listed as Homo sapiens) [compound 249] | + (<20% = +)
+++ (50%-75% = +++) | 6 (ALFDSLRHV; listed as Homo sapiens) [compound 6] | ++ (20%-49% = ++)
++ (20%-49% = ++) | 230 (KLQNIMMLL; listed as Homo sapiens) [compound 230] | ++++ (> = 70% = ++++)
++++ (> = 75% = ++++) | 229 (AILAHLNTV; listed as Homo sapiens) [compound 229] | ++ (20%-49% = ++)
+++ (50%-75% = +++) | 7 (ILDHEVPSL; listed as Homo sapiens) [compound 7] | ++ (20%-49% = ++)
+++ (50%-75% = +++) | 247 (ALYEGYATV; listed as Homo sapiens) [compound 247] | ++ (20%-49% = ++)
++ (20%-49% = ++) | 151 (SVLDSTAKV; listed as Homo sapiens) [compound 151] | ++ (20%-49% = ++)
+++ (50%-75% = +++) | 235 (KIIDFLSAL; listed as Homo sapiens) [compound 235] | +++ (50%-69% = +++)
+++ (50%-75% = +++) | 11 (ALSPSYLTV; listed as Homo sapiens) [compound 11] | ++ (20%-49% = ++)
+++ (50%-75% = +++) | 144 (ALLAFFPGL; listed as Homo sapiens) [compound 144] | +++ (50%-69% = +++)
+++ (50%-75% = +++) | 5 (GIVAHIQEV; listed as Homo sapiens) [compound 5] | + (<20% = +)
